In patent US8114968 one finds % of activity left with 100 nM in assay 04 Oct. 2006 and % of activity left with 100 nM in assay 29 Aug. 2006 data, which are given here for seven molecules.

In this assay the target is human MMP-12 (human) (UniProt P39900). The experiment in a line: cell-based or functional assay.
Sequence of human MMP-12 (human) (P39900 106-470 limits assumed): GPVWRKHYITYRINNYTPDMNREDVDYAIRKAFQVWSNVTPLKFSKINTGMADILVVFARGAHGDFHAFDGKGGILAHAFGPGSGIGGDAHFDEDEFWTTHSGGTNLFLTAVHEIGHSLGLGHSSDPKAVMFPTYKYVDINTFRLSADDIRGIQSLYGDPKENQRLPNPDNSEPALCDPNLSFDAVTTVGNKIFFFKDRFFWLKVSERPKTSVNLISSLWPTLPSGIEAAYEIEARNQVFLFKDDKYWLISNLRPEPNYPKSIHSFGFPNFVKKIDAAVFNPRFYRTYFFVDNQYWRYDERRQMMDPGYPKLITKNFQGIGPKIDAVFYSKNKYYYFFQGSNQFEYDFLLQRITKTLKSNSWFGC

B1: 539B-M0016-D01 (Fab, V domains shown)
VH: EVQLLESGGGLVQPGGSLRLSCAASGFTFSEYNMPWVRQAPGKGLEWVSYIYSSGGSTEYADSVKGRFTISRDNSKNTLYLQMNSLRAEDMAVYYCAKDLWEDSSTWGYGMDVWGQGTTVTVSS
VL: QSELTQPPSVSVSPGQTATITCSGDVSVHKSFCWYQQRPGQSPVLVIYQIDKRPSGVPERFSGSISGTTATLTISGTQATDEADYYCQGWDSTTYYVFGTGTKVTVL
As for B1, the % of activity left with 100 nM in assay 04 Oct. 2006 is 48.1%.

B2: 539B-M0041-G01 (Fab, V domains shown)
VH: EVQLLESGGGLVQPGGSLRLSCAASGFTFSYYPMAWVRQAPGKGLEWVSYISSSGGLTTYADSVKGRFTISRDNSKNTLYLQMNSLRAEDTAVYYCARSPTYYDFWSGYWAGIFDYWGQGTLVTVSS
VL: DIQMTQSPSSLSASVGDRVTITCRASQSISYFLNWYQQKPGKAPKLLIYAASTLQGGVPSRFRGSGSGTDFTLTISSLQPEDFATYYCQHSYSTPPITFGPGTKVDIK
For B2, the % of activity left with 100 nM in assay 04 Oct. 2006 is 109% and the % of activity left with 100 nM in assay 29 Aug. 2006 is 84.8%.

B3: 539B-M0039-F01 (Fab, V domains shown)
VH: EVQLLESGGGLVQPGGSLRLSCAASGFTFSRYWMDWVRQAPGKGLEWVSGIYPSGGYTLYADSVKGRFTISRDNSKNTLYLQMNSLRAEDTAVYYCARHGDYMDVWGKGTTVTVSS
VL: NIQMTQSPSSVSASVGDRVTITCRASQDINYWLAWYQQKPGKAPKLLIYAASSLQSGVPSRFSGSGSGTDFTLTISSLQPEDFATYYCQRANSFPYTFGQGTKLEIK
As for B3, the % of activity left with 100 nM in assay 04 Oct. 2006 was found to be 69.4% and the % of activity left with 100 nM in assay 29 Aug. 2006 amounted to 57.8%.

B4: 539B-M0034-C04 (Fab, V domains shown)
VH: EVQLLESGGGLVQPGGSLRLSCAASGFTFSEYPMYWVRQAPGKGLEWVSVIYPSGGWTDYADSVKGRFTISRDNSKNTLYLQMNSLRAEDTAVYYCARMAVTGGSRFDYWGQGTLVTVSS
VL: DIQMTQSPSSLSASVGDRVSITCRASQNINSYLNWYQQKVGKAPKLLIFGAYTLHSGAPSRFSGSGSGTDFTLTISSLQPEDVATYYCQQTYTSYSFAQGTKLEIK
For the molecule B4, the % of activity left with 100 nM in assay 04 Oct. 2006 stood at 38.6% and the % of activity left with 100 nM in assay 29 Aug. 2006 was 39.1%.

B5: 539B-M0041-B05 (Fab, V domains shown)
VH: EVQLLESGGGLVQPGGSLRLSCAASGFTFSEYPMYWVRQAPGKGLEWVSVIYPSGGWTDYADSVKGRFTISRDNSKNTLYLQMNSLRAEDTAVYYCARMAVTGGSRFDYWGQGTLVTVSS
VL: DIQMTQSPSSLSASVGDRVSITCRASQNINSYLNWYQQKVGKAPKLLIFGAYTLHSGAPSRFSGSGSGTDFTLTISSLQPEDVATYYCQQTYTSYSFAQGTKLEIK
In the case of B5, the % of activity left with 100 nM in assay 04 Oct. 2006 was determined as 35.1%.

B6: 539B-M0009-H08 (Fab, V domains shown)
VH: EVQLLESGGGLVQPGGSLRLSCAASGFTFSMYWMFWVRQAPGKGLEWVSSISSSGGHTFYADSVKGRFTISRDNSKNTLYLQMNSLRAEDTAVYYCARGSYSGYDPFDYWGRGTLVTVSS
VL: QYELTQPPALSVAPGETATITCGGDKIGRKSVNWYQQKAGQAPVLVIFYDNDRPSGITGRFSGSNSGNSATLTISRVEAGDEADFYCQVWGPNDFPLFGGGTKLTVL
In the case of B6, the % of activity left with 100 nM in assay 04 Oct. 2006 came out at 103%.

B7: 539B-M0042-B06 (Fab, V domains shown)
VH: EVQLLESGGGLVQPGGSLRLSCAASGFTFSFYHMEWVRQAPGKGLEWVSSISPSGGHTDYADSVKGRFTISRDNSKNTLYLQMNSLRAEDTAVYYCASLLSGTWGQGTLVTVSS
VL: DIQMTQSPDTLSLSPGERATLSCRASQTISSTFLAWYQQKPGQAPRLLIYGASTRAAGIPDRFIGSGSGTDFTLTISSLEPEDSAVYYCQQYDRSPTFGGGTKVEIK
In the case of B7, the % of activity left with 100 nM in assay 04 Oct. 2006 was 53.6%.
